From patent US6506379 come the findings set out here.

The target of test [1] is His6-flag-FKBP, no drug added (ethanol alone) (human). Briefly: phage display affinity enrichment: FRAP(2015-2114) phagemids mixed with pBC control phagemids, 1 uM His6-flag-FKBP with ethanol alone, capture on Ni-NTA agarose, acid elution.
Test [2] addresses His6-flag-FKBP in complex with FK506 (human). Briefly: phage display affinity enrichment: FRAP(2015-2114) phagemids mixed with pBC control phagemids, 1 uM His6-flag-FKBP plus about 1 uM FK506, capture on Ni-NTA agarose, acid elution.
The target of test [3] is His6-flag-FKBP in complex with rapamycin (human). Briefly: phage display affinity enrichment: FRAP(2015-2114) phagemids mixed with pBC control phagemids, 1 uM His6-flag-FKBP plus about 1 uM rapamycin, capture on Ni-NTA agarose, acid elution.
His6-flag-FKBP in complex with rapamycin (human), sequence (chain, as listed by the source limits assumed): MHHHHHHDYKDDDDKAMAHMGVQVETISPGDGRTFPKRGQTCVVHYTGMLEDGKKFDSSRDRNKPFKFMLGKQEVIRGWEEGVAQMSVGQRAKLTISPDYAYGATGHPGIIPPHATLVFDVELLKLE
Test [4] deals with 1FRB-p65(361-550) (human) (UniProt P42345). As to the kind of experiment: cell-based or functional assay.
1FRB-p65(361-550) (human), sequence (P42345 other isoform, or with tags, fused parts or gaps): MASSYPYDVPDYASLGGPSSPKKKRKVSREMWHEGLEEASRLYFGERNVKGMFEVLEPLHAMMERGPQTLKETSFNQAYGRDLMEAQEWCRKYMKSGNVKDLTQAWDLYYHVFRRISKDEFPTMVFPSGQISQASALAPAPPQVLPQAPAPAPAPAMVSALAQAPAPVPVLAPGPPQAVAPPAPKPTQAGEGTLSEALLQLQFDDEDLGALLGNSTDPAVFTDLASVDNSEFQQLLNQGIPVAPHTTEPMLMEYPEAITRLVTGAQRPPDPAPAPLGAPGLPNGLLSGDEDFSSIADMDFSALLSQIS

His6-flag-FKBP, no drug added (ethanol alone) (human), sequence (chain, as listed by the source limits assumed): as the sequence (chain, as listed by the source limits assumed) above
His6-flag-FKBP in complex with FK506 (human), sequence (chain, as listed by the source limits assumed): as above

Turning to “FRAP (amino acids 2015-2114) displayed on filamentous phagemid particles, from p-CANTAB-AP-FRAP(2015-2114) (from UniProt P03661 215-424)”, the fold enrichment of FRAP phage compared to the starting mixture (carb/chlor cfu ratio) in test [1] was 1.5 fold; in test [2], 2.4 fold; in test [3], 271 fold.

As to “ZFHD1-3FKBP in complex with rapamycin (from UniProt P62942 1-107)”, in test [4], the SEAP activity of the stable clone at 100 nM rapamycin, extended assay (mock transfected cells 47 units) (arbitrary fluorescence units) was > 90000; the SEAP secretion, transiently transfected HT1080 cells (ZFHD1-site SEAP reporter); lowest rapamycin concentration with detectable SEAP stood at 0.5 nM; the SEAP secretion, transiently transfected HT1080 cells; rapamycin concentration at peak SEAP is 5 nM.

Consider “ZFHD1-3FKBP, no drug (from UniProt P62942 1-107)”, for which, in test [4], the SEAP activity of the stable clone without rapamycin, extended assay (mock transfected cells 47 units) (arbitrary fluorescence units) is 54.
